Measured values: patent US20020147306A1, “Peptides that modulate the interaction of B class ephrins and PDZ domains” (priority 1998, published 2002)

Assays:
Experiment in all cases: fluorescence polarization, 25 nM fluorescein-labelled peptide, GST fusion titrated, 22 C
[1] = molecular target: fluorescein-labelled NIYYKV peptide
[2] = molecular target: fluorescein-labelled NIYpYKV peptide
[3] = molecular target: fluorescein-labelled NIpYYKV peptide
[4] = molecular target: fluorescein-labelled NIpYpYKV peptide

Sequence of GST-FAP-1 PDZ5 fusion protein (P08515 whole entry, the tested form may be a part): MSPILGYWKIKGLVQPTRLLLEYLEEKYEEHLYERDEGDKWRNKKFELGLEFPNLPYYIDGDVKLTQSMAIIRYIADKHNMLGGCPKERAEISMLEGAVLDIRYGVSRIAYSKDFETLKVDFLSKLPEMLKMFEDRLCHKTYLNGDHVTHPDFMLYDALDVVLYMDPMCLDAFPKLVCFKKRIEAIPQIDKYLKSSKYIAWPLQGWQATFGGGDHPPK

Substance	Kd [1] [µM]	Kd [2] [µM]	Kd [3] [µM]	Kd [4] [µM]
GST-FAP-1 PDZ5 fusion protein (from UniProt P08515 1-218)	9.9	15.4	6.8	8.4
GST-FAP-1 PDZ3 fusion protein (from UniProt Q12923 1368-1452)	65			
